# Tests used:
# Test in all cases: EMSA
# Conditions in all cases: tetrahydrofuran abasic residue (F); EMSA: 50 mM Tris-HCl pH 8.0, 100 mM NaCl, 1 mM DTT, 50 nM FAM-AP-DNA, 4 °C, 30 min; 5% native PAG. Fluorescence: 50 mM HEPES pH 8.0, 100 mM NaCl, 4 mM DTT …
# [1] = tested on: APE1 (full-length) (Homo sapiens)
# [2] = tested on: APE1NΔ61 (Homo sapiens)
# [3] = tested on: APE1NΔ35 (Homo sapiens)
substance,measurement,setting,value
AP-DNA (32-mer duplex with synthetic abasic site),K half,[1],120 nM
same,K half,[2],210 nM
same,K half,[3],200 nM

# Source: paper PMC7247576
